In publication PMC5816164 (Proceedings of the National Academy of Sciences of the …, 2018):
Bridge positions count the residues as written; N and C are the ends. Ends that are not written are not given here.

Columns and labels:
[1] = tested on: mice hippocampi; assay: Acetylcholine quantification in hippocampus after microinjection; type: in vivo, mouse
[2] = tested on: thoracic aorta; design: species or system Sprague-Dawley rats
[3] = tested on: bronchial rings; design: species or system Sprague-Dawley rats
[4] = tested on: C57BL/6J mice; assay: Microinjection into the hippocampus of mice; type: in vivo, mouse; conditions: 1 μL of 20 μM SsTx and 40 μM retigabine mixture in the hippocampus
[5] = biological target: KCNQ4 (Homo sapiens, UniProt P56696); assay: Whole-cell patch clamp of KCNQ4 currents in HEK293T cells; type: cell-based; conditions: for effect of alanine substitution on inhibition of KCNQ4: 10 μM and 50 μM toxin mutants compared with WT SsTx (Fig. 2 A and B); for effect of conservative replacement on inhibition of KCNQ channels: 10 μM toxin, KCNQ4 currents (Fig. S2D)
[6] = biological target: KCNQ4_D288A (UniProt P56696)
[7] = biological target: KCNQ4_D266G (UniProt P56696)
KCNQ4_D266G, sequence (P56696 whole entry D266G): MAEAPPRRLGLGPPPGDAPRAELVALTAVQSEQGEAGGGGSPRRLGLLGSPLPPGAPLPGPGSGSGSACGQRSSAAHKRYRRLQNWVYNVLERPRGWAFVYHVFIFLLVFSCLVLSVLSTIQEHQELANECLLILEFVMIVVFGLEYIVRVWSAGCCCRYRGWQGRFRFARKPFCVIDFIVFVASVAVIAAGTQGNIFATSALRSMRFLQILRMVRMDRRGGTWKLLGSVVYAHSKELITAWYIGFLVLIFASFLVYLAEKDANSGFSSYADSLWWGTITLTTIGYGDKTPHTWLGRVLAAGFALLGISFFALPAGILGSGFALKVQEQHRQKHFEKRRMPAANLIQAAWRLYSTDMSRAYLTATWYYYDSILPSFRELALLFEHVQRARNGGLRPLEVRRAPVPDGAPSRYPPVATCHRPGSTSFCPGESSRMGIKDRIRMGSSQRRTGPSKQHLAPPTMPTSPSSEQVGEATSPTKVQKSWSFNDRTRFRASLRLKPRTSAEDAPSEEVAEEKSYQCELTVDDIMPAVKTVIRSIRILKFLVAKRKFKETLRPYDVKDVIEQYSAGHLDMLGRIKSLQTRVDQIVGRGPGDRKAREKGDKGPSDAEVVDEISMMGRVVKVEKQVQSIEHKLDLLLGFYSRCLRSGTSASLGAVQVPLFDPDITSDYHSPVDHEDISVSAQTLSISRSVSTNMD

KCNQ4, sequence (P56696 whole entry): as the sequence (P56696 whole entry D266G) above, with G266D counted along it
KCNQ4_D288A, sequence (P56696 whole entry D288A): as the sequence (P56696 whole entry D266G) above, with G266D, D288A counted along it

Molecule: O=C1N(c2ccccc2)c2ccccc2C1(Cc1ccncc1)Cc1ccncc1 [linopirdine]
- increase of acetylcholine concentration ([1]; mice hippocampi, 1 μL of 100 μM, 30 min after microinjection, n = 6): ~81.8%

Molecule: CCOC(=O)Nc1ccc(NCc2ccc(F)cc2)cc1N [retigabine]
- effect on vessel toxicity induced by centipede crude venom and SsTx [2]: significantly reduced
- effect on bronchial ring contraction induced by crude venom or SsTx [3]: contraction can be reduced by retigabine
- effect on SsTx-induced increase in acetylcholine secretion ([1]; mixture of 10 μM SsTx and 40 μM RTG, n = 3): inhibited the SsTx-induced increase in spiking frequency and acetylcholine secretion
- effect on SsTx-induced seizure [4]: inhibited

Molecule: K10A: SsTx single point mutant, alanine substitution of K10 (EVIKKDTPYAKRKFPYKSECLKACATSFTGGDESRIQEGKPGFFKCTCYFTTG)
- effect of alanine substitution on inhibition of KCNQ4 [5]: reduces the toxin’s inhibitory effect on KCNQ4

Molecule: K11A: SsTx single point mutant, alanine substitution of K11 (EVIKKDTPYKARKFPYKSECLKACATSFTGGDESRIQEGKPGFFKCTCYFTTG)
- effect of alanine substitution on inhibition of KCNQ4 [5]: reduces the toxin’s inhibitory effect on KCNQ4

Molecule: K13A: SsTx single point mutant, alanine substitution of K13 (EVIKKDTPYKKRAFPYKSECLKACATSFTGGDESRIQEGKPGFFKCTCYFTTG; ends and bridges not checked; cysteine pairing not given here)
- effect of alanine substitution on inhibition of KCNQ4 [5]: reduces the toxin’s inhibitory effect on KCNQ4

Molecule: K13R: SsTx point mutant, lysine 13 replaced with arginine (EVIKKDTPYKKRRFPYKSECLKACATSFTGGDESRIQEGKPGFFKCTCYFTTG; ends and bridges not checked; cysteine pairing not given here)
- effect of conservative replacement on inhibition of KCNQ channels [5]: minimal influence on SsTx inhibition of KCNQ channels

Molecule: R12A: SsTx single point mutant, alanine substitution of R12 (EVIKKDTPYKKAKFPYKSECLKACATSFTGGDESRIQEGKPGFFKCTCYFTTG; ends and bridges not checked; cysteine pairing not given here)
- effect of alanine substitution on inhibition of KCNQ4 [5]: reduces the toxin’s inhibitory effect on KCNQ4

Molecule: R12K: SsTx point mutant, arginine 12 replaced with lysine (EVIKKDTPYKKKKFPYKSECLKACATSFTGGDESRIQEGKPGFFKCTCYFTTG; ends and bridges not checked; cysteine pairing not given here)
- effect of conservative replacement on inhibition of KCNQ channels [5]: minimal influence on SsTx inhibition of KCNQ channels

B1: Ssm Spooky Toxin (SsTx) (peptide)
chain: EVIKKDTPYKKRKFPYKSECLKACATSFTGGDESRIQEGKPGFFKCTCYFTTG
modifications: disulfide 20-46, 24-48
- inhibitory activity lost in the presence of 10 μM SsTx, against WT KCNQ4 [6]: 97%
- inhibitory activity lost in the presence of 10 μM SsTx, against WT KCNQ4 [7]: 99%
